B1: N70LQ71IL74A: mutated TriA variant of SEQ ID NO: 2 (protein)
chain: MQTLSIQHGTLVTMDQYRRVLGDSWVHVQDGRIVALGVHAESVPPPADRVIDARGKVVLPGFINAHTHVLIILARGGPSHGRQLYDWLFNVLYPGQKAMRPEDVAVAVRLYCAEAVRSGITTINDNADSAIYPGNIEAAMAVYGEVGVRVVYARMFFDRMDGRIQGYVDALKARSPQVELCSIMEETAVAKDRITALSDQYHGTAGGRISVWPAPAITPAVTVEGMRWAQAFARDRAVMWTLHMAESDHDERLHWMSPAEYMECYGLLDERLQVAHCVYFDRKDVRLLHRHNVKVASQVVSNAYLGSGVAPVPEMVERGMAVGIGTDDGNCNDSVNMIGDMKFMAHIHRAVHRDADVLTPEKILEMATIDGARSLGMDHEIGSIETGKRADLILLDLRHPQTTPHHHLAATIVFQAYGNEVDTVLIDGNVVMENRRLSFLPPERELAFLEEAQSRATAILQRANMVANPAWRSL
modifications: Pseudomonas
B2: Q96N: mutated TriA variant of SEQ ID NO: 2 (protein)
chain: MQTLSIQHGTLVTMDQYRRVLGDSWVHVQDGRIVALGVHAESVPPPADRVIDARGKVVLPGFINAHTHVNQILLRGGPSHGRQLYDWLFNVLYPGNKAMRPEDVAVAVRLYCAEAVRSGITTINDNADSAIYPGNIEAAMAVYGEVGVRVVYARMFFDRMDGRIQGYVDALKARSPQVELCSIMEETAVAKDRITALSDQYHGTAGGRISVWPAPAITPAVTVEGMRWAQAFARDRAVMWTLHMAESDHDERLHWMSPAEYMECYGLLDERLQVAHCVYFDRKDVRLLHRHNVKVASQVVSNAYLGSGVAPVPEMVERGMAVGIGTDDGNCNDSVNMIGDMKFMAHIHRAVHRDADVLTPEKILEMATIDGARSLGMDHEIGSIETGKRADLILLDLRHPQTTPHHHLAATIVFQAYGNEVDTVLIDGNVVMENRRLSFLPPERELAFLEEAQSRATAILQRANMVANPAWRSL
modifications: Pseudomonas
B3: R82G: mutated TriA variant of SEQ ID NO: 2 (protein)
chain: MQTLSIQHGTLVTMDQYRRVLGDSWVHVQDGRIVALGVHAESVPPPADRVIDARGKVVLPGFINAHTHVNQILLRGGPSHGGQLYDWLFNVLYPGQKAMRPEDVAVAVRLYCAEAVRSGITTINDNADSAIYPGNIEAAMAVYGEVGVRVVYARMFFDRMDGRIQGYVDALKARSPQVELCSIMEETAVAKDRITALSDQYHGTAGGRISVWPAPAITPAVTVEGMRWAQAFARDRAVMWTLHMAESDHDERLHWMSPAEYMECYGLLDERLQVAHCVYFDRKDVRLLHRHNVKVASQVVSNAYLGSGVAPVPEMVERGMAVGIGTDDGNCNDSVNMIGDMKFMAHIHRAVHRDADVLTPEKILEMATIDGARSLGMDHEIGSIETGKRADLILLDLRHPQTTPHHHLAATIVFQAYGNEVDTVLIDGNVVMENRRLSFLPPERELAFLEEAQSRATAILQRANMVANPAWRSL
modifications: Pseudomonas
B4: Q96A: mutated TriA variant of SEQ ID NO: 2 (protein)
chain: MQTLSIQHGTLVTMDQYRRVLGDSWVHVQDGRIVALGVHAESVPPPADRVIDARGKVVLPGFINAHTHVNQILLRGGPSHGRQLYDWLFNVLYPGAKAMRPEDVAVAVRLYCAEAVRSGITTINDNADSAIYPGNIEAAMAVYGEVGVRVVYARMFFDRMDGRIQGYVDALKARSPQVELCSIMEETAVAKDRITALSDQYHGTAGGRISVWPAPAITPAVTVEGMRWAQAFARDRAVMWTLHMAESDHDERLHWMSPAEYMECYGLLDERLQVAHCVYFDRKDVRLLHRHNVKVASQVVSNAYLGSGVAPVPEMVERGMAVGIGTDDGNCNDSVNMIGDMKFMAHIHRAVHRDADVLTPEKILEMATIDGARSLGMDHEIGSIETGKRADLILLDLRHPQTTPHHHLAATIVFQAYGNEVDTVLIDGNVVMENRRLSFLPPERELAFLEEAQSRATAILQRANMVANPAWRSL
modifications: Pseudomonas
B5: N126M: mutated TriA variant of SEQ ID NO: 2 (protein)
chain: MQTLSIQHGTLVTMDQYRRVLGDSWVHVQDGRIVALGVHAESVPPPADRVIDARGKVVLPGFINAHTHVNQILLRGGPSHGRQLYDWLFNVLYPGQKAMRPEDVAVAVRLYCAEAVRSGITTINDMADSAIYPGNIEAAMAVYGEVGVRVVYARMFFDRMDGRIQGYVDALKARSPQVELCSIMEETAVAKDRITALSDQYHGTAGGRISVWPAPAITPAVTVEGMRWAQAFARDRAVMWTLHMAESDHDERLHWMSPAEYMECYGLLDERLQVAHCVYFDRKDVRLLHRHNVKVASQVVSNAYLGSGVAPVPEMVERGMAVGIGTDDGNCNDSVNMIGDMKFMAHIHRAVHRDADVLTPEKILEMATIDGARSLGMDHEIGSIETGKRADLILLDLRHPQTTPHHHLAATIVFQAYGNEVDTVLIDGNVVMENRRLSFLPPERELAFLEEAQSRATAILQRANMVANPAWRSL
modifications: Pseudomonas
B6: R82L: mutated TriA variant of SEQ ID NO: 2 (protein)
chain: MQTLSIQHGTLVTMDQYRRVLGDSWVHVQDGRIVALGVHAESVPPPADRVIDARGKVVLPGFINAHTHVNQILLRGGPSHGLQLYDWLFNVLYPGQKAMRPEDVAVAVRLYCAEAVRSGITTINDNADSAIYPGNIEAAMAVYGEVGVRVVYARMFFDRMDGRIQGYVDALKARSPQVELCSIMEETAVAKDRITALSDQYHGTAGGRISVWPAPAITPAVTVEGMRWAQAFARDRAVMWTLHMAESDHDERLHWMSPAEYMECYGLLDERLQVAHCVYFDRKDVRLLHRHNVKVASQVVSNAYLGSGVAPVPEMVERGMAVGIGTDDGNCNDSVNMIGDMKFMAHIHRAVHRDADVLTPEKILEMATIDGARSLGMDHEIGSIETGKRADLILLDLRHPQTTPHHHLAATIVFQAYGNEVDTVLIDGNVVMENRRLSFLPPERELAFLEEAQSRATAILQRANMVANPAWRSL
modifications: Pseudomonas
B7: R82M: mutated TriA variant of SEQ ID NO: 2 (protein)
chain: MQTLSIQHGTLVTMDQYRRVLGDSWVHVQDGRIVALGVHAESVPPPADRVIDARGKVVLPGFINAHTHVNQILLRGGPSHGMQLYDWLFNVLYPGQKAMRPEDVAVAVRLYCAEAVRSGITTINDNADSAIYPGNIEAAMAVYGEVGVRVVYARMFFDRMDGRIQGYVDALKARSPQVELCSIMEETAVAKDRITALSDQYHGTAGGRISVWPAPAITPAVTVEGMRWAQAFARDRAVMWTLHMAESDHDERLHWMSPAEYMECYGLLDERLQVAHCVYFDRKDVRLLHRHNVKVASQVVSNAYLGSGVAPVPEMVERGMAVGIGTDDGNCNDSVNMIGDMKFMAHIHRAVHRDADVLTPEKILEMATIDGARSLGMDHEIGSIETGKRADLILLDLRHPQTTPHHHLAATIVFQAYGNEVDTVLIDGNVVMENRRLSFLPPERELAFLEEAQSRATAILQRANMVANPAWRSL
modifications: Pseudomonas
B8: Q96E: mutated TriA variant of SEQ ID NO: 2 (protein)
chain: MQTLSIQHGTLVTMDQYRRVLGDSWVHVQDGRIVALGVHAESVPPPADRVIDARGKVVLPGFINAHTHVNQILLRGGPSHGRQLYDWLFNVLYPGEKAMRPEDVAVAVRLYCAEAVRSGITTINDNADSAIYPGNIEAAMAVYGEVGVRVVYARMFFDRMDGRIQGYVDALKARSPQVELCSIMEETAVAKDRITALSDQYHGTAGGRISVWPAPAITPAVTVEGMRWAQAFARDRAVMWTLHMAESDHDERLHWMSPAEYMECYGLLDERLQVAHCVYFDRKDVRLLHRHNVKVASQVVSNAYLGSGVAPVPEMVERGMAVGIGTDDGNCNDSVNMIGDMKFMAHIHRAVHRDADVLTPEKILEMATIDGARSLGMDHEIGSIETGKRADLILLDLRHPQTTPHHHLAATIVFQAYGNEVDTVLIDGNVVMENRRLSFLPPERELAFLEEAQSRATAILQRANMVANPAWRSL
modifications: Pseudomonas
B9: Q96D: mutated TriA variant of SEQ ID NO: 2 (protein)
chain: MQTLSIQHGTLVTMDQYRRVLGDSWVHVQDGRIVALGVHAESVPPPADRVIDARGKVVLPGFINAHTHVNQILLRGGPSHGRQLYDWLFNVLYPGDKAMRPEDVAVAVRLYCAEAVRSGITTINDNADSAIYPGNIEAAMAVYGEVGVRVVYARMFFDRMDGRIQGYVDALKARSPQVELCSIMEETAVAKDRITALSDQYHGTAGGRISVWPAPAITPAVTVEGMRWAQAFARDRAVMWTLHMAESDHDERLHWMSPAEYMECYGLLDERLQVAHCVYFDRKDVRLLHRHNVKVASQVVSNAYLGSGVAPVPEMVERGMAVGIGTDDGNCNDSVNMIGDMKFMAHIHRAVHRDADVLTPEKILEMATIDGARSLGMDHEIGSIETGKRADLILLDLRHPQTTPHHHLAATIVFQAYGNEVDTVLIDGNVVMENRRLSFLPPERELAFLEEAQSRATAILQRANMVANPAWRSL
modifications: Pseudomonas
B10: N126A: mutated TriA variant of SEQ ID NO: 2 (protein)
chain: MQTLSIQHGTLVTMDQYRRVLGDSWVHVQDGRIVALGVHAESVPPPADRVIDARGKVVLPGFINAHTHVNQILLRGGPSHGRQLYDWLFNVLYPGQKAMRPEDVAVAVRLYCAEAVRSGITTINDAADSAIYPGNIEAAMAVYGEVGVRVVYARMFFDRMDGRIQGYVDALKARSPQVELCSIMEETAVAKDRITALSDQYHGTAGGRISVWPAPAITPAVTVEGMRWAQAFARDRAVMWTLHMAESDHDERLHWMSPAEYMECYGLLDERLQVAHCVYFDRKDVRLLHRHNVKVASQVVSNAYLGSGVAPVPEMVERGMAVGIGTDDGNCNDSVNMIGDMKFMAHIHRAVHRDADVLTPEKILEMATIDGARSLGMDHEIGSIETGKRADLILLDLRHPQTTPHHHLAATIVFQAYGNEVDTVLIDGNVVMENRRLSFLPPERELAFLEEAQSRATAILQRANMVANPAWRSL
modifications: Pseudomonas

type: biochemical; conditions: pH 7.2
Summary of the method: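 TriA variants, N-His-tagged, were expressed in E. coli BL21(DE3) Gold with groEL/groES chaperones and purified by Ni-IDA affinity. Enzyme in 25 mM sodium phosphate pH 7.2 was incubated with azine substrates at 1 nM to 10 nM, 30° C. Products were identified by UPLC-HR-MS.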

Compared with B1, B2 is higher in “Degradation in % of 6-cyclopentyl-N4-(2,3,4,5,6-pentafluorophenyl)-1,3,5-triazine-2,4-diamine” value: 0% for the first, 2% for the second.

B3 and B4 are the same in “Degradation in % of 6-cyclopentyl-N4-(2,3,4,5,6-pentafluorophenyl)-1,3,5-triazine-2,4-diamine” value: 0% for the first, 0% for the second.

Compared with B5, B6 is higher in “Degradation in % of 6-cyclopentyl-N4-(2,3,4,5,6-pentafluorophenyl)-1,3,5-triazine-2,4-diamine” value: 0% for the first, 1% for the second.

Going from B7 to B8, the “Degradation in % of 6-cyclopentyl-N4-(2,3,4,5,6-pentafluorophenyl)-1,3,5-triazine-2,4-diamine” value falls from 2% to 0%.

B9 and B10 are the same in “Degradation in % of 6-cyclopentyl-N4-(2,3,4,5,6-pentafluorophenyl)-1,3,5-triazine-2,4-diamine” value: 4% for the first, 4% for the second.

B1 and B2 are the same in “Degradation in % of Melamine” value: 2% for the first, 2% for the second.

B3 and B4 are the same in “Degradation in % of Melamine” value: 0% for the first, 0% for the second.

Compared with B5, B6 is lower in “Degradation in % of Melamine” value: 3% for the first, 1% for the second.

Going from B7 to B8, the “Degradation in % of Melamine” value falls from 2% to 0%.

Compared with B9, B10 is higher in “Degradation in % of Melamine” value: 0% for the first, 2% for the second.

Source: patent US11499162B2, “Plants having increased tolerance to herbicides” (BASF SE, priority 2016, dated 2022)
